According to patent US10428308B2, “Mesoderm and definitive endoderm cell populations” (Icahn School of Medicine at Mount Sinai, priority 2005, dated 2019):

How the values were obtained:
Assay type in all cases: cell-based, mouse
[1] = test system: EBs (HNF3β, Hex1 expression); assay: Antibody staining for HNF3β and Hex1 in activin-induced EBs
Experimental: To better estimate the proportion of endodermal progenitors in the activin-induced EBs, cells from cultures stimulated with 100 ng/ml activin were stained with antibodies against HNF3β and Hex1. EBs from un-induced cultures were used as controls (Activin-). A significant portion of the activin induced population (estimated at 50-60% of total) expressed both HNF3β and Hex1. None of the cells in the un-induced EBs expressed these proteins.
To quantify the differential response of activin, cells stimulated with different concentrations of activin were adhered to coverslips and stained with the anti-HNF3β antibody. More than 50% of the entire EB population stimulated with 100 ng/ml of activin expressed HNF3β whereas only 10% of the cells stimulated with 3 ng/ml were positive.

[2] = test system: GFP-Bry ES cells / EBs; assay: Activin induction of brachyury (GFP) in serum-free EB cultures, FACS
Experimental: A) FACS profile showing GFP expression in day 6 EBs differentiated in the presence of 100 ng/ml of activin. B) Kinetics of GFP induction in cultures containing 100 ng/ml of activin. Open circles are EB differentiated in the presence of activin, closed squares are EBs differentiated in absence of activin. C) RT-PCR expression analysis of indicated genes in day 6 EBs grown in the presence (+activin) or absence (−activin) of activin. Numbers indicate day of EB differentiation.
FIGS. 23A and 23B show the effects of different concentrations of activin on the developmental potential of EBs. A) GFP expression in day 7 EBs induced with different concentrations of activin. B) RT-PCR expression analysis of day 7 EBs induced with different concentrations of activin.
To further enrich for cells with endodermal potential, the effects of growth factors known to induce this cell population in other model systems were tested. Studies in Xenopus have shown that activin will induce both mesoderm and endoderm from ectoderm in culture. Of particular interest was the observation that activin behaved as a morphogen in this model in that it induced different cell types at different concentrations used. […] ES cells were differentiated for 2 days in Stem Pro 34 medium without serum. At this stage, the developing EBs were harvested and recultured in IMDM supplemented with serum replacement (serum free) and activin at a concentration of 100 ng/ml. EBs were harvested at different days and assayed for GFP^+ expression and expression of genes indicative of ectoderm, mesoderm and endoderm development. […] While the kinetics of GFP induction was delayed compared to EBs differentiated in serum, this concentration of activin did induce substantial numbers of brachyury positive cells (60%) by day 6 of differentiation. […] Induction of pdx-1 is of interest, as this gene is essential for pancreas development. Genes associated with hematopoietic development, such as GATA-1 and those indicative of neuroectoderm differentiation such as PAX6 were not induced by activin.
As little as 1 ng/ml of activin induced GFP^+ expression (10% of the total population) by 7 days of culture (FIG. 23A). The frequency of GFP^+ cells increased to 40% in cultures stimulated with 3 ng/ml and reached plateau levels of greater than 50% at 30 ng/ml. […] HNF3β, Sox17, Hex-1 were all induced in cultures stimulated with 10, 30, or 100 ng/ml of activin. Pdx-1 expression required the highest amount of activin and was induced best in EBs stimulated with 100 ng/ml. Neither GATA1 nor c-fms was expressed at any concentration of activin.

[3] = test system: CD4-HNF/GFP-T ES cells; assay: Activin A / Wnt3a induction of ES derived primitive streak like cells in serum free culture, with pathway inhibitors; settings: serum free
Experimental: FIGS. 34A, 34B and 34C depict ES cells differentiated in serum free conditions with Activin A Wnt3a and/or inhibitors of these pathways. ES cells were cultured in serum free media for two days then trypsinized to obtain a single cell population. These cells were then reaggregated with the indicated conditions. At day six, the EBs were plated on matrigel coated dishes in serum free media.
Liu et. al. (1999) Nat. Genet. 22: 361-4. […] Activin stimulation leads to high levels of CD4 expression that persist after loss of GFP-Bry expression at day 6. […] Wnt does however stimulate expression of the posterior primitive streak markers HoxBI and Tbx6, while activin only induces Tbx6. […] At day 6, EBs that were stimulated with either activin or Wnt3a were plated on matrigel in serum free media to allow further development.
Considering that Wnt stimulation induces nodal and activin treatment induces Wnt3 (FIG. 34B), it is unknown whether activin/nodal signaling or Wnt Signaling alone can induce primitive streak formation or whether both factors are required together. CD4-HNF/GFP-T ES cells were induced with either activin or Wnt in conjunction with specific inhibitors of these pathways. DKK1 was used to inhibit Wnt signaling while the small molecule inhibitor SB-431542 (SB) was used to block Nodal/TGFβ signaling. DKK1 functions by binding the Wnt co-receptors, LRP5 and LRP6, which are essential for activation of the βcatenin signaling pathway. […] Inman et. al. (2002) MoI. Pharmacol. 62: 65-74. […] Therefore, to induce mesoderm and endoderm germ layers and their derivative tissues, both activin/Nodal and Wnt signals are required initially.

B1: activin: growth factor purchased from R&D systems; induces mesoderm and endoderm (protein, UniProt P08476 311-426, looked up)
Inhibin beta A chain: GLECDGKVNICCKKQFFVSFKDIGWNDWIIAPSGYHANYCEGECPSHIAGTSGSSLSFHSTVINHYRMRGHSPFANLKSCCVPTKLRPMSMLYYDDGQNIIKKDIQNMIVEECGCS
[1]; activin 3 ng/ml, anti-HNF3β antibody
  cells positive for HNF3β: 10%
[1]; activin 100 ng/ml, anti-HNF3β antibody
  entire EB population expressing HNF3β: More than 50%
[1]; activin 100 ng/ml, antibody staining, estimated
  portion of population expressing both HNF3β and Hex1: 50-60 % of total
[2]; activin 1 ng/ml, 7 days of culture
  GFP^+ expression (% of the total population): 10%
[2]; activin 3 ng/ml, day 7
  frequency of GFP^+ cells: 40%
[2]; activin 30 ng/ml, day 7
  frequency of GFP^+ cells, plateau level: greater than 50%
[2]; activin 100 ng/ml, serum free, day 6 of differentiation
  brachyury positive cells (GFP): 60%
[3]; day 6 EBs plated on matrigel a further 6 days
  endodermal gene expression (Alb, Aat, HNF4, Pdxl) by RT-PCR: allowed development of cells expressing the endodermal genes Alb, Aat, HNF4, and Pdxl
[3]; Activin A 25 ng/ml or Wnt3a 100 ng/ml
  induction of GFP^+ CD4^+ cells: initially induce GFP^+ CD4^+ cells
